The assay concerns the target mouse calmodulin, bacterially expressed and biotinylated (mouse, UniProt P0DP26 1-149, biotinylated (EZ-link Sulfo-NHS-LC-Biotinylation kit)). The assay can be described thus: far-Western, overlay or dot blot.

B1: Pcdp1-2, fragment aa 447–530 of mouse Pcdp1 with the uncharacterized predicted CaM-binding motif (domain or fragment)
chain: PLVNNVWLTRHRAQRRFQQAARKIMLERRLLSMLGAIRGMDKESILRKIIQVNGKLIQGENPSRGRRAHLKQEDNIWRYSLESE
Consider B1, for which the binding result is “binds”.
